# Results as given in PMC7854179 (Molecules and Cells, 2021).
# T1: human PTPN14 PTP domain (residues 886-1187), PTP_(PTPN14) (human, UniProt Q15678 886-1187)
# T1 sequence: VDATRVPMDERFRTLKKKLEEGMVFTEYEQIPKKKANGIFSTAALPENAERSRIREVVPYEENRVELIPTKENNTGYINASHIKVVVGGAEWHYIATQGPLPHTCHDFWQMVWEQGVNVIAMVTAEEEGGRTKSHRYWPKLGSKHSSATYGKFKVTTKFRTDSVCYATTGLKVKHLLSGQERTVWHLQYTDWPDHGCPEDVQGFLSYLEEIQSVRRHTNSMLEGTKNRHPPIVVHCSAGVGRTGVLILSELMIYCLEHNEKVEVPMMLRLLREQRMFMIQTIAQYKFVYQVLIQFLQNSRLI
# B1: HPV16 E7 CR3 (residues 45-98) (domain or fragment)
# chain: AEPDRAHYNIVTFCCKCDSTLRLCVQSTHVDIRTLEDLLMGTLGIVCPICSQKP
# B2: HPV11 E7 CR3 (residues 45-98) (domain or fragment)
# chain: AQPLTQHYQILTCCCGCDSNVRLVVECTDGDIRQLQDLLLGTLNIVCPICAPKP
# B3: human PTPN21 PTP domain (residues 873-1174), PTP_(PTPN21) (domain or fragment)
# chain: EVATRATNDERCKILEQRLEQGMVFTEYERILKKRLVDGECSTARLPENAERNRFQDVLPYDDVRVELVPTKENNTGYINASHIKVSVSGIEWDYIATQGPLQNTCQDFWQMVWEQGIAIIAMVTAEEEGGREKSFRYWPRLGSRHNTVTYGRFKITTRFRTDSGCYATTGLKMKHLLTGQERTVWHLQYTDWPEHGCPEDLKGFLSYLEEIQSVRRHTNSTSDPQSPNPPLLVHCSAGVGRTGVVILSEIMIACLEHNEVLDIPRVLDMLRQQRMMLVQTLCQYTFVYRVLIQFLKSSRLI
# B4: HPV18 E7 conserved region 3 (residues 54-105), CR3_(18E7) (domain or fragment)
# chain: AEPQRHTMLCMCCKCEARIKLVVESSADDLRAFQQLFLNTLSFVCPWCASQQ
# B5: HPV1a E7 CR3 (residues 39-93) (domain or fragment)
# chain: LVSPQQPYAVVASCAYCEKLVRLTVLADHSAIRQLEELLLRSLNIVCPLCTLQRQ
# Tests used:
# [1] = molecular target: the molecule itself; assay: SEC-MALS
# [2] = molecular target: B4; assay: SEC-MALS
# [3] = molecular target: B1; assay: SEC-MALS
# [4] = molecular target: B5; assay: SEC-MALS
# [5] = molecular target: B2; assay: SEC-MALS
# [6] = molecular target: B4; assay: SAXS
# [7] = molecular target: T1, human PTPN14 PTP domain (residues …); assay: SAXS
# [8] = molecular target: B3; assay: ITC
binder,measurement,setting,value
B1,stoichiometry N,[1],2
B2,stoichiometry N,[1],2
B3,stoichiometry N,[2],1 PTP_(PTPN21) per E7 CR3 chain (2:2)
same,stoichiometry N,[3],1 PTP_(PTPN21) per E7 CR3 chain (2:2)
same,stoichiometry N,[4],1 PTP_(PTPN21) per E7 CR3 chain (2:2)
same,stoichiometry N,[5],1 PTP_(PTPN21) per E7 CR3 chain (2:2)
same,stoichiometry N,[6],1 PTP_(PTPN21) per CR3_(18E7) chain (2:2)
B4,stoichiometry N,[1],2
same,binding result,[7],binds
same,Kd,[8],5.43 nM
B5,stoichiometry N,[1],2
